Experimental data from patent publication US20230035748A1.
No end group written: not given here.

Assays:
Test in all cases: pull-down from MDA-MB-231 cell lysate with CT20p-biotin and streptavidin-agarose beads, excised gel band, mass spectrometry
[1] = target: Huntingtin (human) (UniProt P42858)
[2] = target: T-complex protein 1 subunit epsilon (human) (UniProt P48643)
[3] = target: T-complex protein 1 subunit eta (human) (UniProt Q99832)
[4] = target: Coatomer subunit beta (human) (UniProt P35606)
[5] = target: Cellular tumor antigen p53 (human) (UniProt P04637)
[6] = target: Hsp90 co-chaperone Cdc37 (human) (UniProt Q16543)
[7] = target: Reticulocalbin-2 (human) (UniProt Q14257)
[8] = target: Signal transducer and activator of transcription 1-alpha/beta (human) (UniProt P42224)
[9] = target: T-complex protein 1 subunit zeta (human) (UniProt P40227)
[10] = target: T-complex protein 1 subunit delta (human) (UniProt P50991)
[11] = target: T-complex protein 1 subunit alpha (human) (UniProt P17987)
[12] = target: Signal transducer and activator of transcription 3 (human) (UniProt P40763)
[13] = target: T-complex protein 1 subunit gamma (human) (UniProt P49368)
[14] = target: Coatomer subunit gamma-1 (human) (UniProt Q9Y678)

Sequence of UniProt Q16543 (Q16543 whole entry): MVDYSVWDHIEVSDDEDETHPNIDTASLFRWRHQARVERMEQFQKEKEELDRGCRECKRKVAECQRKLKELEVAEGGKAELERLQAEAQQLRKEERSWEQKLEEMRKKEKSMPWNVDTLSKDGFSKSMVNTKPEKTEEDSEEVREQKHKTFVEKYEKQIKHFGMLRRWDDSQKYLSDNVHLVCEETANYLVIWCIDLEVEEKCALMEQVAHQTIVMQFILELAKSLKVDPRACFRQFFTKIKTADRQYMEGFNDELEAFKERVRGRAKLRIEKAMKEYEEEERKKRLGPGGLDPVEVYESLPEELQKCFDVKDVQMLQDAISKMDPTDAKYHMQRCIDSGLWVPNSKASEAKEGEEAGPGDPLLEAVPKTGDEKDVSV
Sequence of UniProt Q99832 (Q99832 whole entry, one chain of several): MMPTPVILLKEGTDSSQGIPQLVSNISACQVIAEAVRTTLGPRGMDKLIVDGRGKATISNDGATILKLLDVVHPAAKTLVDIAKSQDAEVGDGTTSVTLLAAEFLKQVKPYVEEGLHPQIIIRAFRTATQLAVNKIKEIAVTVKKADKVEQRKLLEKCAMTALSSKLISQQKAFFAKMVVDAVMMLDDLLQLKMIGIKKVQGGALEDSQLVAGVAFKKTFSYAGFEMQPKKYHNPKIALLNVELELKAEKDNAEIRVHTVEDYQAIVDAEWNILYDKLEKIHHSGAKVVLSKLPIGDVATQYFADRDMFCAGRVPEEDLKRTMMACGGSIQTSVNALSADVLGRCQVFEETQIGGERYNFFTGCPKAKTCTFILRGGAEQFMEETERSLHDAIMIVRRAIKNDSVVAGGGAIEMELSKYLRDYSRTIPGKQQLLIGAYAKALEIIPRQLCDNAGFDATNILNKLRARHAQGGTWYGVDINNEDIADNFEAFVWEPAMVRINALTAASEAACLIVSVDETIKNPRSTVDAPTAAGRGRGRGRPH
Sequence of UniProt P42224 (P42224 2-750 limits assumed): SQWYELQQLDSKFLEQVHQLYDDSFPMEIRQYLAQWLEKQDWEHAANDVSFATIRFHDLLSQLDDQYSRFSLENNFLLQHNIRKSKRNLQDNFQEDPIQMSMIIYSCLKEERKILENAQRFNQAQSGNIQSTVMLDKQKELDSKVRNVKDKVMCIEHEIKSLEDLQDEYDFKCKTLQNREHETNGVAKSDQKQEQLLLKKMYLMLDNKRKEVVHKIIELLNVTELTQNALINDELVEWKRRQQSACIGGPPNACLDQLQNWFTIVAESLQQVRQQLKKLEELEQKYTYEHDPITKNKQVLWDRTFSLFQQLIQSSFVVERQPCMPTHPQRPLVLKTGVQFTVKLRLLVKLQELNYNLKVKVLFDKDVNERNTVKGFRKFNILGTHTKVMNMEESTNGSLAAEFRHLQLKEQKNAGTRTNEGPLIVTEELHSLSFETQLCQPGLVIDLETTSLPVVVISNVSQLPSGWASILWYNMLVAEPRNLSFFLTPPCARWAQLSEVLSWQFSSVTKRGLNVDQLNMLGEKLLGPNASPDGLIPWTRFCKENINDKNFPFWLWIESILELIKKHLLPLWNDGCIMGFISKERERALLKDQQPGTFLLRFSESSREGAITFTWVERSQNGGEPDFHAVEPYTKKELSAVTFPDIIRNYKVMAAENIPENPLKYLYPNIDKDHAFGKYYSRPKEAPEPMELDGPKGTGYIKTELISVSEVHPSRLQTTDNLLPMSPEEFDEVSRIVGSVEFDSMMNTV
Sequence of UniProt P35606 (P35606 2-906 limits assumed): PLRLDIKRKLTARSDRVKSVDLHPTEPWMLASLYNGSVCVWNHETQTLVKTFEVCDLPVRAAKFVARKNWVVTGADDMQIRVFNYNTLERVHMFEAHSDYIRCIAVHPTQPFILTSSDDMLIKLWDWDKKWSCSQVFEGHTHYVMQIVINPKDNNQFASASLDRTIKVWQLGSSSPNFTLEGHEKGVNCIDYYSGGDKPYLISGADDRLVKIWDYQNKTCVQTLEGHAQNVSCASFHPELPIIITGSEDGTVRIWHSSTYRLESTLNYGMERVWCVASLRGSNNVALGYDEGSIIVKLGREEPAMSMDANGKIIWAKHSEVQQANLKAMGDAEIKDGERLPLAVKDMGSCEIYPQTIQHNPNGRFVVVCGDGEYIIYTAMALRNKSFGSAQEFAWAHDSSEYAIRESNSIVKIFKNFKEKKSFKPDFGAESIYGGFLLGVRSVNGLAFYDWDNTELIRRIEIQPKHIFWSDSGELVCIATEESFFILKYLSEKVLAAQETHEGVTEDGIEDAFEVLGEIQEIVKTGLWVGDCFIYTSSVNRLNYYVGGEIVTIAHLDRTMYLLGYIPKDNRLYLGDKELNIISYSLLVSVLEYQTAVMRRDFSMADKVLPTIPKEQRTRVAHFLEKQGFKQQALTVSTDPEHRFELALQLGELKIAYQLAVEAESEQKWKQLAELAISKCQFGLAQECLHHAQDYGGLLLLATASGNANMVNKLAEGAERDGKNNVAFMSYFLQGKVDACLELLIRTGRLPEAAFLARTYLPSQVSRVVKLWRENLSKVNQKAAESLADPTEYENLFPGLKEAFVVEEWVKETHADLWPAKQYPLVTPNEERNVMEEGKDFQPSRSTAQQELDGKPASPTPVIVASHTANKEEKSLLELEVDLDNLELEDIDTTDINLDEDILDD
Sequence of UniProt P04637 (P04637 whole entry): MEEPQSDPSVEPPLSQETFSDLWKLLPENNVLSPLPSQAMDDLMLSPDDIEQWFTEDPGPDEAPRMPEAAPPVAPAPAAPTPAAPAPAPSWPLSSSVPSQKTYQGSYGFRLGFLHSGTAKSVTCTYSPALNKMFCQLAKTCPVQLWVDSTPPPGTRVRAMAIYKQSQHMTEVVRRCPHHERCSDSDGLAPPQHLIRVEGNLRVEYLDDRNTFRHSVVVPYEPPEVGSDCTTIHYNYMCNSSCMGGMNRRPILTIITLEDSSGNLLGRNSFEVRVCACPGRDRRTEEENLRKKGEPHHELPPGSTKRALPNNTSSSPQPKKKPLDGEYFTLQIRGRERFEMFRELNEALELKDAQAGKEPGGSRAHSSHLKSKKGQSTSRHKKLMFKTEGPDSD
Sequence of UniProt P48643 (P48643 2-541 limits assumed, one chain of several): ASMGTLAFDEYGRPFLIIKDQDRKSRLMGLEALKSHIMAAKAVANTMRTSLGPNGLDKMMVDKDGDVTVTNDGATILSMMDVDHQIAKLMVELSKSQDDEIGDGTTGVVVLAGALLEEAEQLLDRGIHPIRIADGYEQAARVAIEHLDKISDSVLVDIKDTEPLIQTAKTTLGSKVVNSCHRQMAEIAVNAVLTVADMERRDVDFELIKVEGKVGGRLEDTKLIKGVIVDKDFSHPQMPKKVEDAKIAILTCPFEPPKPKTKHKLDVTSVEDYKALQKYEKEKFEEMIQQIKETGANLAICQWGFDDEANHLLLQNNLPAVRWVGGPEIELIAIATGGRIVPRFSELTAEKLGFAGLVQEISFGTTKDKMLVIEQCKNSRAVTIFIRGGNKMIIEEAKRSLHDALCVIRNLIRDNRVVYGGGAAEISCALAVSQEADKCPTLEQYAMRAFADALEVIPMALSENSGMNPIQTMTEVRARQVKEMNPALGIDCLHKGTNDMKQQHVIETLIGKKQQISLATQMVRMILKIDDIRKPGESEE
Sequence of UniProt P50991 (P50991 2-539, stated change not applied, one chain of several): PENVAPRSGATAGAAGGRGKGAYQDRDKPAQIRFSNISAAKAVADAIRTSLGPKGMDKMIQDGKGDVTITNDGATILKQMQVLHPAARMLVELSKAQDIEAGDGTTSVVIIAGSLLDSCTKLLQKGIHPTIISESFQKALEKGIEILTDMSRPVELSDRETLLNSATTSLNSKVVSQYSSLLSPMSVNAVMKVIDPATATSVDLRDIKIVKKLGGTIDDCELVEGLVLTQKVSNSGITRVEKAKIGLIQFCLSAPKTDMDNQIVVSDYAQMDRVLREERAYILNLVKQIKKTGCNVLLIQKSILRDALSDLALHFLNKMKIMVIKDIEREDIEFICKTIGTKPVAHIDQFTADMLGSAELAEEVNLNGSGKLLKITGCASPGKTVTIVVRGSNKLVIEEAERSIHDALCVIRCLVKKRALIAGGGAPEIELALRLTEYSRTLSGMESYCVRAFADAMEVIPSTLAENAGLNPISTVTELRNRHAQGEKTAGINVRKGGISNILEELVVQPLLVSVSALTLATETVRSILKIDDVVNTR
Sequence of UniProt P17987 (P17987 whole entry, one chain of several): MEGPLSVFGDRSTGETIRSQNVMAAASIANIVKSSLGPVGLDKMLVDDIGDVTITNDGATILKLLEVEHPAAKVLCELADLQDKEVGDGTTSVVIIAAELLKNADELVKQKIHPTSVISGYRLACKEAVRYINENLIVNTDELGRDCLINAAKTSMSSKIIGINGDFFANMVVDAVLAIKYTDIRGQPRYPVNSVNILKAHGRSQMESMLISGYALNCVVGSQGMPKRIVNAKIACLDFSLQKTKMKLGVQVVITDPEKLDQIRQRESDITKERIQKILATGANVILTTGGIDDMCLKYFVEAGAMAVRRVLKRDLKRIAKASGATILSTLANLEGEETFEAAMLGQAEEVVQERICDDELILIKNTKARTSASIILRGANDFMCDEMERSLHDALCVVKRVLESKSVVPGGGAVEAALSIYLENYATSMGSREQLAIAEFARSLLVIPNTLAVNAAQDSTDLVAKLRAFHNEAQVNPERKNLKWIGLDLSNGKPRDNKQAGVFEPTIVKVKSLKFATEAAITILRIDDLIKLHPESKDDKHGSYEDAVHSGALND
Sequence of UniProt Q14257 (Q14257 23-317 limits assumed): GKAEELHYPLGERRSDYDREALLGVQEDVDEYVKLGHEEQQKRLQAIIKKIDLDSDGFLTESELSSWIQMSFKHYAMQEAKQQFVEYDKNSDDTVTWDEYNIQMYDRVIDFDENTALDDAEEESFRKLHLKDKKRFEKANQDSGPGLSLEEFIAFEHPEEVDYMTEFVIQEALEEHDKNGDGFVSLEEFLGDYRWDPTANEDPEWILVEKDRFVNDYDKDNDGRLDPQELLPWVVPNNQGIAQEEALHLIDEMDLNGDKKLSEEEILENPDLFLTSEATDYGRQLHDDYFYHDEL

VTIFVAGVLTASLTIWKKMG (also: biotin tag, site not given here) [biotin-tagged CT20p]
No. of unique peptides [1]: 1 peptides | No. of unique peptides [2]: 2 peptides | No. of unique peptides [3]: 3 peptides | No. of unique peptides [4]: 6 peptides | No. of unique peptides [5]: 1 peptides | No. of unique peptides [6]: 2 peptides | No. of unique peptides [7]: 10 peptides | No. of unique peptides [8]: 7 peptides | No. of unique peptides [9]: 2 peptides | No. of unique peptides [10]: 4 peptides | No. of unique peptides [11]: 2 peptides | No. of unique peptides [12]: 2 peptides | No. of unique peptides [13]: 3 peptides | No. of unique peptides [14]: 6 peptides
